The record followed here is US20240317840A1 (Novartis, published 2024).

The target of assay [1] is HBsAg of HBV genotype C (DQ087960) (Hepatitis B virus). Put plainly: sandwich ELISA, captured HBsAg from culture supernatant. In general terms: ELISA stands for enzyme-linked immunosorbent assay.
Experimental: (§1) The binding of anti-HBsAg antibodies to the 4 major genotypes (A-D) of HBV were analyzed by sandwich ELISA.
The target in assay [2] is T1, HBsAg of HBV genotype A (AY934772) (Hepatitis B virus).
T1 construct: captured from supernatant by horse polyclonal anti-HBsAg
The assay is described as above.
Experimental: as §1

Assay [3] addresses HBsAg of HBV genotype B (AF 121245) (Hepatitis B virus). The assay is described as above.
Experimental: as §1
Assay [4] deals with T2, HBsAg AY serotype (Hepatitis B virus).
T2 construct: also called HBsAg serotype AY
Put plainly: SPR Biacore T200, HBsAg particles immobilized, antibody as analyte, 1:1 fit. (SPR reads the build-up and loss of mass on a sensor chip optically.)
Experimental: (§2) Binding affinity interaction (KD) of the anti-HBsAg antibodies with the two major serotypes of HBsAg, AY and AD, was determined utilizing surface plasma resonance (SPR) technology.

Assay [5] has as its target T3, HBsAg AD serotype (Hepatitis B virus).
T3 construct: also called HBsAg serotype AD
Described as above.
Experimental: as §2

Assay [6] concerns the target HBsAg of HBV genotype D, serotype ayw (Hepatitis B virus). Put plainly: cell-based or functional assay.
Assay [7] addresses HBsAg clinical mutation M133L (Hepatitis B virus). Briefly: sandwich ELISA, mutant HBsAg from cell supernatant captured on horse polyclonal anti-HBsAg, antibody titrated, absorbance 450 nm.
For assay [8], the target named is HBsAg clinical mutation T126S (Hepatitis B virus). The assay is described as above.
For assay [9], the target named is HBsAg clinical mutation M133L (Hepatitis B virus). Briefly: sandwich ELISA, captured mutant HBsAg from culture supernatant.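 Further: Anti-HBsAg antibodies tested for binding to mutant HBsAg secreted by stably transfected cell lines, supernatant incubated 1 h on antibody-coated plates.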
Experimental: (§3) The binding of anti-HBsAg antibodies to 4 well characterized vaccine and/or HBsAg clinical mutations of HBsAg (G145R, D144A, T126S, M133L) were analyzed by sandwich ELISA. […] Supernatant collected from HBsAg cell-culture derived clinical mutation stables (G145R, D144A, T126S, M133L) was allowed to bind antibody coated plates for 1 hour.
Assay [10] concerns the target HBsAg clinical mutation T126S (Hepatitis B virus). Described as above.
Experimental: as §3
For assay [11], the target named is HBsAg clinical mutation D144A (Hepatitis B virus). The description is as above.
Experimental: as §3
Assay [12] addresses HBsAg clinical mutation G145R (Hepatitis B virus). Described as above.
Experimental: as §3
The target in assay [13] is HBsAg clinical mutation M133L (Hepatitis B virus). Briefly: sandwich ELISA, mutant HBsAg from cell supernatant captured on horse polyclonal anti-HBsAg, antibody titrated, absorbance 450 nm. This is another data set of the same source.
Assay [14] addresses HBsAg clinical mutation T126S (Hepatitis B virus). The assay is described as above. This is another data set of the same source.
Assay [15] has as its target T2, HBsAg AY serotype. Put plainly: SPR epitope binning; competitor (1st, saturating Ab): HBC34.
Experimental: (§4) Epitope binning of anti-HBsAg antibodies with the two major serotypes of HBsAg, AY and AD, was performed utilizing surface plasmon resonance (SPR) technology. […] Each pair of antibodies was tested for blocking one another's binding to their epitope on the antigen by subsequently applying one antibody as first (saturating) followed by the other as second (competing) antibody and vice versa. Saturating antibodies were applied at 500 nM for 120s. Competing antibodies utilized the same conditions but were supplemented with the first antibody at 500 nM to maintain saturation. Binding signals were corrected by subtracting the reference cell signal. Specific binding of the competing antibody in presence of the saturating antibody was calculated by subtracting a saturating antibody plus buffer reference signal. All signals were normalized to 100 RU of immobilized ligand. The specific binding signal obtained from the application as competing antibody was expressed as percentage of the binding signal obtained from the application of the same antibody as saturating (first) antibody, the signal of which was regarded 100% binding.
The target in assay [16] is T3, HBsAg AD serotype. Described as above.
Experimental: as §4
For assay [17], the target named is T2, HBsAg AY serotype. Put plainly: SPR epitope binning; competitor (1st, saturating Ab): CR8087.
Experimental: as §4
Assay [18] has as its target T3, HBsAg AD serotype. Described as above.
Experimental: as §4
Assay [19] has as its target HBsAg clinical mutation M133L (Hepatitis B virus). Put plainly: sandwich ELISA, mutant HBsAg from cell supernatant captured on horse polyclonal anti-HBsAg, antibody titrated, absorbance 450 nm. This is another data set of the same source.
Assay [20] deals with HBsAg clinical mutation T126S (Hepatitis B virus). The assay is described as above. This is another data set of the same source.
Assay [21] deals with HBsAg clinical mutation G145R (Hepatitis B virus). The assay is described as above.
For assay [22], the target named is HBsAg clinical mutation D144A (Hepatitis B virus). Described as above.
Assay [23] addresses HBsAg clinical mutation M133L (Hepatitis B virus). The assay is described as above. The source holds these as a separate data set.
The target of assay [24] is HBsAg clinical mutation T126S (Hepatitis B virus). The description is as above. The source holds these as a separate data set.
The target in assay [25] is HBsAg clinical mutation M133L (Hepatitis B virus). Described as above. This is another data set of the same source.
Assay [26] concerns the target HBsAg clinical mutation T126S (Hepatitis B virus). Described as above. This is another data set of the same source.
Assay [27] has as its target HBsAg clinical mutation M133L (Hepatitis B virus). The assay is described as above. The source holds these as a separate data set.
For assay [28], the target named is HBsAg clinical mutation T126S (Hepatitis B virus). The description is as above. The source holds these as a separate data set.

Where two headings read alike, the source gives them in different places.
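Wherever Kd is given: Anti-HBsAg antibodies assessed for binding against both major HBsAg serotypes, AY and AD.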

B1: NOV3837 (antibody, human IgG1, kappa, V domains shown)
VH: QVQLQESGGRLVRPGGSLRLSCAASGFIFTDYYMTWIRQAPGKGPEWIAFITSGGETTYYADSVKGRFTISRDNAKKSLFLQMYSLRADDTAVYYCVRAHFDGYQYDTRGDFTYYFDNWGLGTLVSVSS
VL: EIVMTQSPATLSVSPGERVTLSCRASQSVSSSLAWYQQKPGRAPRLLIYGASTRATGVPARFSGGGSGTDFTLTISSLQSEDFAVYYCHQYINWPPGDTFGQGTRLDIKR
notes: Full human IgG1 (kappa) expressed in CHO cells
Take B1: the 50% inhibitory concentration (IC50) (usually the concentration that inhibits the measured activity by half) in assay [1] was 0.17 nM; in [2] it was 0.093 nM; in assay [3], 0.069 nM; in assay [9], 0.035 nM; in [10], 0.03 nM; in assay [11] it was 0.27 nM. Also, the Kd (in general, a measure of binding affinity in units of concentration) was 0.75 nM with HBsAg AY serotype [4] and 0.67 nM with HBsAg AD serotype [5]. Also, the “Virus neutralization EC50” value in assay [6] was 0.049 nM. In addition, the EC50 (read off the curve) (as a rule, the concentration at which the effect is half-maximal) is ~0.04 nM in [7] and ~0.03 nM in assay [8].

B2: NOV3838 (antibody, human IgG1, kappa, V domains shown)
VH: QVQLQESGGRLVRPGGSLRLSCAASGFIFTDYYMTWIRQAPGKGPEWIAFITSGGETTYYADSVKGRFTISRDNAKKSLFLQMYSLRADDTAVYYCVRAHFDLYQYDTRGDFTYYFDNWGLGTLVSVSS
VL: EIVMTQSPATLSVSPGERVTLSCRASQSVSSSLAWYQQKPGRAPRLLIYGASTRATGVPARFSGGGSGTDFTLTISSLQSEDFAVYYCHQYINWPPGDTFGQGTRLDIKR
notes: as for B1
With B2, the IC50 was 0.21 nM in assay [1]; 0.2 nM in assay [2]; 0.05 nM in assay [3]; 0.15 nM in [9]; 0.11 nM in assay [10]; 5.2 nM in [12]. The molecule further gave an IC50 in [11] of 6.1 nM. Moreover, the Kd with HBsAg AY serotype [4] came to 0.6 nM; with HBsAg AD serotype [5], 0.68 nM. In assay [6], the “Virus neutralization EC50” value came to 0.12 nM. The figures for the “EC50 (read off the curve)” value in assay [13] and in [14] were ~0.2 nM and ~0.1 nM, respectively.

B3: NOV3540 (antibody, human IgG1, kappa, V domains shown)
VH: EVQLLESGGGLVQPGGSLRLSCAASGFTFSPHAMSWVRQAPGKGLEWVSAISDSGGSTHYADSVKGRFTISRDNSKNTLYLQMNSLRAEDTAVYYCARDDDAWSGYDYWFDYWGQGTLVTVSS
VL: DIQMTQSPSSLSASVGDRVTITCRASQSISPYLNWYQQKPGKAPKLLIYAADSLQSGVPSRFSGSGSGTDFTLTISSLQPEDFATYYCQQSYKIPLTFGQGTKVEIKR
notes: as for B1
Turning to B3, the “binding of second antibody” value with HBsAg AY serotype [15] is 102 % of its binding as first antibody; in the assay with HBsAg AD serotype [16] it was 111 % of its binding as first antibody; in the assay with HBsAg AY serotype [17], 118 % of its binding as first antibody; with HBsAg AD serotype [18] it was 254 % of its binding as first antibody. Moreover, the IC50 in assay [1] was 0.1 nM; in assay [2] it was 0.1 nM; in assay [3], 0.059 nM; in assay [9], 0.091 nM; in assay [10], 0.063 nM; in assay [12] it was 0.25 nM. This molecule came in with an IC50 in [11] of 0.16 nM. In addition, the Kd stood at 0.25 nM with HBsAg AY serotype [4] and 0.39 nM with HBsAg AD serotype [5]. For the same molecule, the “Virus neutralization EC50” value in [6] was determined as 0.085 nM. Also, the concentration giving a half-maximal response (EC50 (read off the curve)) was ~0.08 nM in assay [19], ~0.08 nM in [20], ~0.3 nM in assay [21] and ~0.2 nM in assay [22].

B4: NOV3831 (antibody, human IgG1, lambda, V domains shown)
VH: EMQVLESGGGLVQPGGSLRLSCAASGFTFNNYAMSWVRQVPGKGLEWVSSISGSGGSTYYADSVKGQFTISRDNSKNTLYLQMNSLRAEDTAVYYCAKSSILSGGHARVYGIDVWGQGTTVTVSS
VL: QSALTQPPSVSVAPGQTARITCGGNNIGSQSVHWYQQKPGQAPILVVYDDTDRPSGIPARFSGSSSGSTATLTIGRVEAGDEADYYCQVWDSSSDHVVFGGGTKLTVLS
notes: Full human IgG1 (lambda) expressed in CHO cells
Take B4: the concentration for half-maximal inhibition (IC50) in assay [1] is 0.031 nM; in assay [2], 0.69 nM; in [3], 0.015 nM; in assay [9] it was 0.0058 nM; in assay [10] it was 0.0093 nM; in assay [12], > 67 nM. In addition, the half-maximal inhibitory concentration (IC50) in assay [11] stood at 3.6 nM. In addition, the dissociation constant Kd was found to be 0.59 nM with HBsAg AY serotype [4] and 0.67 nM with HBsAg AD serotype [5]. In addition, the “Virus neutralization EC50” value in [6] is 0.026 nM. Also, the 50% effective concentration (EC50 (read off the curve)) in assay [23] and in assay [24] was ~0.02 nM throughout.

B5: NOV3832 (antibody, human IgG1, lambda, V domains shown)
VH: EMQVLESGGGLVQPGGSLRLSCAASGFTFDNYAMSWVRQVPGKGLEWVSSISGSGGSTYYADSVKGQFTISRDNSKNTLYLQMNSLRAEDTAVYYCAKSSILSGGHARVYGIDVWGQGTTVTVSS
VL: QSALTQPPSVSVAPGQTARITCGGNNIGSQSVHWYQQKPGQAPILVVYDDTDRPSGIPARFSGSSSGSTATLTIGRVEAGDEADYYCQVWDSSSDHVVFGGGTKLTVLS
notes: as for B4
As to B5, the half-maximal effective concentration (EC50 (read off the curve)) in assay [25] and in [26] was ~0.05 nM throughout. Moreover, the “binding of second antibody” value in the assay with HBsAg AY serotype [15] was 113 % of its binding as first antibody; with HBsAg AD serotype [16], 176 % of its binding as first antibody; with HBsAg AY serotype [17], 117 % of its binding as first antibody; in the assay with HBsAg AD serotype [18], 223 % of its binding as first antibody. The IC50 is 0.015 nM in [1]; 0.05 nM in assay [2]; 0.02 nM in [3]; 0.034 nM in assay [9]; 0.034 nM in assay [10]; > 67 nM in assay [12]. In addition, it took 0.99 nM to reach half-maximal inhibition in [11] (IC50). Besides, the values for the Kd in the assay with HBsAg AY serotype [4] and with HBsAg AD serotype [5] were 0.4 nM and 0.22 nM, respectively. In addition, the “Virus neutralization EC50” value in assay [6] was 0.26 nM.

B6: NOV3833 (antibody, human IgG1, lambda, V domains shown)
VH: EMQVLESGGGLVQPGGSLRLSCAASGFTFHNYAMSWVRQVPGKGLEWVSSISGSGGSTYYADSVKGQFTISRDNSKNTLYLQMNSLRAEDTAVYYCAKSSILSGGHARVYGIDVWGQGTTVTVSS
VL: QSALTQPPSVSVAPGQTARITCGGNNIGSQSVHWYQQKPGQAPILVVYDDTDRPSGIPARFSGSSSGSTATLTIGRVEAGDEADYYCQVWDSSSDHVVFGGGTKLTVLS
notes: as for B4
On to B6, for which the concentration for half-maximal inhibition (IC50) in [1] was 0.12 nM; in [2], 0.56 nM; in [3], 0.12 nM; in [9] it was 0.036 nM; in assay [10], 0.025 nM; in assay [12] it was > 67 nM. In [11], the half-maximal inhibitory concentration (IC50) was 2.8 nM. For the same molecule, the values for the Kd with HBsAg AY serotype [4] and with HBsAg AD serotype [5] were 0.26 nM and 0.33 nM, respectively. Moreover, in assay [6], the “Virus neutralization EC50” value came out at 0.27 nM. The “EC50 (read off the curve)” value in assay [27] was ~0.05 nM; in assay [28], ~0.04 nM.
